Test results published in patent US9845340B2, “Peptides that specifically bind HGF receptor (cMet) and uses thereof” (Dyax Corp., priority 2003, dated 2017).

Tests used:
[1] = target: cMet-Fc fusion protein (Homo sapiens, UniProt P08581); assay: Protein phage ELISA: peptide-displaying phage binding to soluble cMet-Fc versus TRAIL-Fc; conditions: phage isolate; cMet-Fc vs. TRAIL-Fc
Procedure, shortened: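 Plates coated with 0.5 μg/mL cMet-Fc or, as background, TRAIL-Fc, then blocked with 3% BSA in PBST. Peptide-displaying phage bound 2 h at room temperature. Detection with HRP-anti-M13 antibody.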

[2] = target: T1, 3T3 cells that over-express human cMet (Homo sapiens, UniProt P08581); assay: Whole cell ELISA of peptide-displaying phage; assay type: cell-based; conditions: phage isolate; 3T3 cells expressing human cMet vs. non-expressing 3T3 cells
T1 construct: expressed in transfected cells; host or cells: 3T3 cells
T1 sequence (P08581 25-1390): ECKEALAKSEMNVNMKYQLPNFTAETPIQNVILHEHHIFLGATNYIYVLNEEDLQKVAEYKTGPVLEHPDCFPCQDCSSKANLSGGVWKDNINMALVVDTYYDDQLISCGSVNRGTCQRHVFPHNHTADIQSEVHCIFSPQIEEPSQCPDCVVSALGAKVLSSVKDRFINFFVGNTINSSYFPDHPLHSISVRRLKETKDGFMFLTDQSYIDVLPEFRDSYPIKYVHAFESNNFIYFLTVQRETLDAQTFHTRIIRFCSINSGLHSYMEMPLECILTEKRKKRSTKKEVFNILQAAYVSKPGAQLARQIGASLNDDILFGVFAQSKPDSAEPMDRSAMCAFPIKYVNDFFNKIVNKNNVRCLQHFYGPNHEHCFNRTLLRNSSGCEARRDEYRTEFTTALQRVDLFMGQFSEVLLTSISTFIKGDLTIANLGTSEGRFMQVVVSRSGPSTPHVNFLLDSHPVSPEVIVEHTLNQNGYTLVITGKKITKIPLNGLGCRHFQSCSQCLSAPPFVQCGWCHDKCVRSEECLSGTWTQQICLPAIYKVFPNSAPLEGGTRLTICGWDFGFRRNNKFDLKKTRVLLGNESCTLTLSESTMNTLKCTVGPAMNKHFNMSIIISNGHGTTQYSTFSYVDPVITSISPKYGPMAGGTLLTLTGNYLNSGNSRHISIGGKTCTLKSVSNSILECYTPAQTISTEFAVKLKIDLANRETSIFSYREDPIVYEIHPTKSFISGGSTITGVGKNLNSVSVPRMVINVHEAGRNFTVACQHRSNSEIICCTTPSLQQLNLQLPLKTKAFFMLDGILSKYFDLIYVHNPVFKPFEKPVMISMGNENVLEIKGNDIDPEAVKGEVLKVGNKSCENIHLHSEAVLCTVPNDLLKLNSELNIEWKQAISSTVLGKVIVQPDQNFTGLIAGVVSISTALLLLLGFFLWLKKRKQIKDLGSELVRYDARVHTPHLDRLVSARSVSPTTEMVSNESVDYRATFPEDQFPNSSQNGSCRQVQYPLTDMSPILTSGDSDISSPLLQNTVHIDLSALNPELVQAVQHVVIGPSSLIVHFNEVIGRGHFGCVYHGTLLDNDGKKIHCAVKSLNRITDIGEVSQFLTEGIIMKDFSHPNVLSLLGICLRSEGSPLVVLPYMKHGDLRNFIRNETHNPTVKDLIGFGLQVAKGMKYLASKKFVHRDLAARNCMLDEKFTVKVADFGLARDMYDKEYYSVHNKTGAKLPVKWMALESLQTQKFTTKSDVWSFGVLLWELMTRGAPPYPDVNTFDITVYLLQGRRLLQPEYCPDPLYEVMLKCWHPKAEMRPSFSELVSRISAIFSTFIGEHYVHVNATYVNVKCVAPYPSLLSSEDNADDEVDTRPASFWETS
Procedure, shortened: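 3T3 cells over-expressing human cMet seeded 10^5/well, pelleted and fixed with 0.1% glutaraldehyde 12 min at 37 °C. Blocked peptide-displaying phage bound 1 h at room temperature; after PBST wash, bound phage detected with HRP-conjugated anti-M13 antibody.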

Chain of cMet-Fc fusion protein (P08581 25-307 limits assumed): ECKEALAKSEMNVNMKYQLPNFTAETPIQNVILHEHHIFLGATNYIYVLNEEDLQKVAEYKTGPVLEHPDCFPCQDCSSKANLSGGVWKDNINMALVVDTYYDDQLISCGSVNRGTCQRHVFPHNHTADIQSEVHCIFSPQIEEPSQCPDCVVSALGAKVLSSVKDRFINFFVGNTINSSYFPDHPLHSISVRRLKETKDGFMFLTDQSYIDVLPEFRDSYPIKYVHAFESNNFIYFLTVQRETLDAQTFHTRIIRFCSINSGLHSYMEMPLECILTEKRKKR
Chain of cMet-Fc fusion protein (P08581 with tags, fused parts or gaps limits assumed): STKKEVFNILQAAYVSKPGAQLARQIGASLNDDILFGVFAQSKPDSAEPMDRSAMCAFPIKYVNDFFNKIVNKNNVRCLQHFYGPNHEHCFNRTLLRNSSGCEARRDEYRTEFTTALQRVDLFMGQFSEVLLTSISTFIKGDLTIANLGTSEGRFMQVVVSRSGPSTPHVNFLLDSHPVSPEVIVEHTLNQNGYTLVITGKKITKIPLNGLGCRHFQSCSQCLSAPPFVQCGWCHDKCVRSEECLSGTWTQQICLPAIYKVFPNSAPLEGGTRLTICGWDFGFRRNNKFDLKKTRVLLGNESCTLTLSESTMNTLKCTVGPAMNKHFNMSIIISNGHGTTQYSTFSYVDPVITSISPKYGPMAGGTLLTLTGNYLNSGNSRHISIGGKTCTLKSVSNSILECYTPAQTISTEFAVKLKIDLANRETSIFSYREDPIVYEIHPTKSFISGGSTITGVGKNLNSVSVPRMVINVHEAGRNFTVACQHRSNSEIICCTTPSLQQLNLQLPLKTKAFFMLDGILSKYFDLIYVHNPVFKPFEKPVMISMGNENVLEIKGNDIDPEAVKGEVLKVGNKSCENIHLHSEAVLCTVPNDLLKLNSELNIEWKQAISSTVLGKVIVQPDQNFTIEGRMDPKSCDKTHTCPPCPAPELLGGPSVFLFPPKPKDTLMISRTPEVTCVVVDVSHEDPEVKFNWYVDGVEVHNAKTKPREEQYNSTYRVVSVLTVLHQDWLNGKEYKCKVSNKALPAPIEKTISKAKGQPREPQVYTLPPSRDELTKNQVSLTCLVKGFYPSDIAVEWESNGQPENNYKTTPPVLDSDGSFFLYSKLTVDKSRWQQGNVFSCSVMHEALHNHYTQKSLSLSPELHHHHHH

Compound | Protein ELISA [1] [fold over background] | WC ELISA [2] [fold over background]
AQMYQTPDGVIGKFVDWMFN (Synthetically generated cMet-binding peptide sequence) [SEQ ID NO: 455] | 8.0 | 1.33
AGIWFCNNEEKSCWAYGT (Synthetically generated cMet-binding peptide sequence) [SEQ ID NO: 040] | 3.0 | 1.37
AGGHWCLELKHLCPPYGT (Synthetically generated cMet-binding peptide sequence) [SEQ ID NO: 044] | 4.1 | 1.23
GSFWNCTTDLGAMSDCGFFAP (Synthetically generated cMet-binding peptide sequence) [SEQ ID NO: 383] | 3.1 | 1.37
AQWNQWDEFMWFLNPPPIGLMW (Synthetically generated cMet-binding peptide sequence) [SEQ ID NO: 480] | 3.3 | 1.23
AGDHYCWEEWWFCWDSGT (Synthetically generated cMet-binding peptide sequence) [SEQ ID NO: 021] | 3.5 | 1.37
GSEFECTGWPEFRCYEYAP (Synthetically generated cMet-binding peptide sequence) [SEQ ID NO: 100] | 8.4 | 1.20
AGKQWCVVWEETCDQLGT (Synthetically generated cMet-binding peptide sequence) [SEQ ID NO: 039] | 3.7 | 1.33
GSLIICWWSWCDKQAP (Synthetically generated cMet-binding peptide sequence) [SEQ ID NO: 009] | 3.8 | 1.27
AQGIAWQLEWSYMPQSPPSFDR (Synthetically generated cMet-binding peptide sequence) [SEQ ID NO: 495] | 4.5 | 1.17
CC[C@H](C)[C@H](NC(=O)[C@H](CO)NC(=O)CNC(=O)[C@H](C)NC(C)=O)C(=O)N[C@@H](CCC(N)=O)C(=O)N[C@H]1CSSC[C@@H](C(=O)N[C@H](C(=O)N2CCC[C@H]2C(=O)N[C@@H](Cc2ccc(O)cc2)C(=O)NCC(=O)N[C@H](C(=O)NCC(=O)NCC(=O)NCC(=O)N[C@@H](CCCCNC(=O)c2ccc3c(c2)C(=O)OC32c3ccc(O)cc3Oc3cc(O)ccc32)C(N)=O)[C@@H](C)O)[C@@H](C)O)NC(=O)[C@H](CCC(=O)O)NC(=O)[C@H](Cc2ccccc2)NC(=O)[C@H](CO)NC(=O)[C@@H]2CCCN2C(=O)[C@@H]2CCCN2C(=O)CNC(=O)[C@H](C(C)C)NC1=O [SEQ ID NO: 074] | 6.7 | 1.37
CC[C@H](C)[C@H](NC(=O)[C@H](Cc1c[nH]c2ccccc12)NC(=O)CNC(=O)[C@H](C)NC(C)=O)C(=O)N[C@@H](CO)C(=O)N[C@H]1CSSC[C@@H](C(=O)N[C@@H](Cc2c[nH]c3ccccc23)C(=O)N2CCC[C@H]2C(=O)NCC(=O)NCC(=O)N[C@H](C(=O)NCC(=O)NCC(=O)NCC(=O)N[C@@H](CCCCNC(=O)c2ccc3c(c2)C(=O)OC32c3ccc(O)cc3Oc3cc(O)ccc32)C(N)=O)[C@@H](C)O)NC(=O)[C@H](C)NC(=O)[C@H](Cc2ccccc2)NC(=O)[C@H]([C@@H](C)O)NC(=O)[C@@H]2CCCN2C(=O)[C@@H]2CCCN2C(=O)CNC(=O)[C@H](C)NC1=O [SEQ ID NO: 056] | 14.3 | 1.23
GSFAPCGWPSFAIDCIAEAP (Synthetically generated cMet-binding peptide sequence) [SEQ ID NO: 367] | 7.7 | 1.30
GSLYRCLGEASPTPPCAYEAP (Synthetically generated cMet-binding peptide sequence) [SEQ ID NO: 380] | 4.0 | 1.37
AGYYGCKGPPTFECQWMGT (Synthetically generated cMet-binding peptide sequence) [SEQ ID NO: 049] | 13.8 | 1.33
CSCC[C@H](NC(=O)[C@H](CC(=O)O)NC(=O)[C@H](C)NC(=O)[C@H](CC(=O)O)NC(=O)[C@H](CCC(N)=O)NC(=O)[C@H](CC(C)C)NC(=O)[C@H](CCC(=O)O)NC(=O)[C@H](Cc1ccc(O)cc1)NC(=O)[C@H](Cc1ccc(O)cc1)NC(=O)[C@@H]1CCCN1C(=O)[C@H](CCC(N)=O)NC(=O)[C@H](C)NC(C)=O)C(=O)N[C@@H](CC(C)C)C(=O)N[C@@H](CC(C)C)C(=O)N[C@H](C(=O)N[C@H](C(=O)N[C@@H](C)C(=O)N[C@@H](CC(C)C)C(=O)N[C@@H](CC(C)C)C(=O)N[C@@H](CO)C(=O)N[C@H](C(=O)NCC(=O)NCC(=O)NCC(=O)NCC(=O)N[C@@H](CCCCNC(=O)c1ccc2c(c1)C(=O)OC21c2ccc(O)cc2Oc2cc(O)ccc21)C(N)=O)[C@@H](C)O)C(C)C)C(C)C [SEQ ID NO: 458] | 6.1 | 1.20
CC[C@H](C)[C@@H]1NC(=O)[C@H](Cc2ccc(O)cc2)NC(=O)[C@H]([C@@H](C)O)NC(=O)[C@H](CCC(=O)O)NC(=O)[C@H](CC(C)C)NC(=O)[C@H](CC(=O)O)NC(=O)[C@H](Cc2ccccc2)NC(=O)[C@H](CC(=O)O)NC(=O)[C@@H](NC(=O)[C@H](Cc2ccc(O)cc2)NC(=O)[C@H](CC(=O)O)NC(=O)[C@H](Cc2ccc(O)cc2)NC(=O)[C@H](CC(=O)O)NC(=O)CNC(C)=O)CSSC[C@@H](C(=O)N[C@@H](Cc2c[nH]cn2)C(=O)N[C@@H](CO)C(=O)N[C@@H](Cc2ccc(O)cc2)C(=O)N[C@@H](CC(=O)O)C(=O)N2CCC[C@H]2C(=O)NCC(=O)NCC(=O)NCC(=O)N[C@@H](CCCCNC(=O)c2ccc3c(c2)C(=O)OC32c3ccc(O)cc3Oc3cc(O)ccc32)C(N)=O)NC(=O)[C@H](CCC(=O)O)NC(=O)[C@@H]2CCCN2C1=O [SEQ ID NO: 390] | 16.1 | 1.27
AGVNSCLGPPTFECYQMGT (Synthetically generated cMet-binding peptide sequence) [SEQ ID NO: 076] | 5.7 | 1.20
AQWNWDMGFMWTTDSAQVQPSM (Synthetically generated cMet-binding peptide sequence) [SEQ ID NO: 489] | 3.0 | 1.37
AQFMYEKEHYVMSISLPGLWFY (Synthetically generated cMet-binding peptide sequence) [SEQ ID NO: 486] | 3.0 | 1.63
GSSHLCNPEFCHFTAP (Synthetically generated cMet-binding peptide sequence) [SEQ ID NO: 003] | 3.2 | 1.30
AQKTWFLEADLFQMFQEVTWQF (Synthetically generated cMet-binding peptide sequence) [SEQ ID NO: 490] | 3.0 | 1.40
CC(=O)N[C@@H](C)C(=O)NCC(=O)N[C@@H](CO)C(=O)N[C@@H](Cc1c[nH]c2ccccc12)C(=O)N[C@@H](Cc1c[nH]cn1)C(=O)N[C@H]1CSSC[C@@H](C(=O)N[C@@H](Cc2c[nH]c3ccccc23)C(=O)N[C@@H](CCC(=O)O)C(=O)N[C@@H](Cc2ccccc2)C(=O)NCC(=O)N[C@H](C(=O)NCC(=O)NCC(=O)NCC(=O)N[C@@H](CCCCNC(=O)c2ccc3c(c2)C(=O)OC32c3ccc(O)cc3Oc3cc(O)ccc32)C(N)=O)[C@@H](C)O)NC(=O)[C@H](CCC(=O)O)NC(=O)[C@H](Cc2ccccc2)NC(=O)[C@H](CO)NC(=O)[C@@H]2CCCN2C(=O)[C@@H]2CCCN2C(=O)CNC(=O)[C@H](C)NC1=O [SEQ ID NO: 055] | 18.3 | 1.47
GSDMNCTVLAQDQIFCFREAP (Synthetically generated cMet-binding peptide sequence) [SEQ ID NO: 386] | 3.0 | 1.37
AGKYMCEGFEWFCEMWGT (Synthetically generated cMet-binding peptide sequence) [SEQ ID NO: 037] | 4.1 | 1.43
GSGDPCSPGPSINGHCSVMAP (Synthetically generated cMet-binding peptide sequence) [SEQ ID NO: 382] | 4.5 | 1.33
